Our source for the mean fluorescence intensity (MFI) values is patent publication US20150132317A1.

The experiment concerns the target ALK F1174L, human (human) (UniProt Q9UM73). Nature of the experiment: flow cytometry, SY5Y cells stained with isotype control.

isotype control (antibody) returned a mean fluorescence intensity (MFI) of 90.
